# Reference: patent US20220195067A1 (LAMKAP BIO BETA, published 2022)
# T1: human CEACAM5 on CEACAM5-expressing cancer cell lines (human, UniProt P06731 35-685)
# T1 construct: whole, on cells; also called CEACAM5 on SK-CO-1, MKN-45, HPAF-II, SNU-C1, Ls174T, LoVo cells
# T1 sequence (looked up): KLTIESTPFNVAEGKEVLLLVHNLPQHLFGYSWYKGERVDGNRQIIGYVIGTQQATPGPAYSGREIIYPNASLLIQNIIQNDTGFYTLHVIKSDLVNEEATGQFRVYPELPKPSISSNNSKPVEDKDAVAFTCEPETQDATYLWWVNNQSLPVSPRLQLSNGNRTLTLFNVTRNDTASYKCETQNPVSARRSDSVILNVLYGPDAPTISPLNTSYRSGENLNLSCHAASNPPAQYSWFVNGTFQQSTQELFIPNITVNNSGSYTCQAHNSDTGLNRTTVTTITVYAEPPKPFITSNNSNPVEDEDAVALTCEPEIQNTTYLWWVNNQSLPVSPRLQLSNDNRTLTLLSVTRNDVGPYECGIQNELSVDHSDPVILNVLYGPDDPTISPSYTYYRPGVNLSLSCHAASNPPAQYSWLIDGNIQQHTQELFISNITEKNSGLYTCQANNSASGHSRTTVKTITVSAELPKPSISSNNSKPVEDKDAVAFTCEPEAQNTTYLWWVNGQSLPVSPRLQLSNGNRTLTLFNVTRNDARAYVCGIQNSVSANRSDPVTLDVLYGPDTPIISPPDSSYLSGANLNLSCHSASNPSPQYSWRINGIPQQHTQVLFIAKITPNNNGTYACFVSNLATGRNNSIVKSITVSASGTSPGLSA
# Key:
# [1] = target: T1, human CEACAM5 on CEACAM5-expressing …; assay: flow cytometry on MKN-45 cells (carry CEACAM5 and CD47), PE anti-human IgG Fc
# Experimental: (§1) The binding of CD47×CEACAM5 bispecific antibodies was tested on CEACAM5-expressing human gastric adenocarcinoma cells (e.g. MKN-45), on CEACAM5-expressing human colorectal cancer cells (SK-CO-1, SNU-C1, Ls174T, and LoVo), and on CEACAM5-expressing pancreatic adenocarcinoma cells (HPAF-II).
# (§2) Cells were harvested, counted, checked for viability and resuspended at 3×10⁶ cells/ml in FACS buffer (PBS 2% BSA, 0.1% NaN3). 100 μl of the cell suspension was distributed in V-bottom 96-well plates (3×10⁵ cells/well). The supernatant was removed by centrifugation 3 minutes at 4° C., 1300 rpm. Increasing concentrations of the antibody according to the invention were then added into the wells and incubated for 15 minutes at 4° C. Cells were washed twice with cold FACS buffer and re-incubated for further 15 minutes at 4° C. with the PE (R-phycoerythrin)-conjugated mouse anti-human IgG Fc secondary antibody (SouthernBiotech, pre-diluted 1:100 in FACS buffer). Cells were washed twice with cold FACS buffer and resuspended in 300 μl FACS buffer with 1:15000-diluted SytoxBlue (Life Technologies). Fluorescence, specifically mean fluorescence […] (MFI), was determined using a Cytoflex […] flow cytometer. Binding curves and […] and Emax values were obtained and calculated using GraphPad Prism7 software.
# [2] = target: T1, human CEACAM5 on CEACAM5-expressing …; assay: flow cytometry on HPAF-II cells (carry CEACAM5 and CD47), PE anti-human IgG Fc
# Experimental: as §1, §2
# [3] = target: T2, human CD47 expressed at the surface of MKN-45 cells (human, UniProt Q08722 19-323); assay: CD47/SIRPα blocking assay on MKN-45 cells (carry CD47 and CEACAM5), imaging of bound SIRPα-mouseFc
# T2 construct: whole, on cells; MKN-45 cells express both CD47 and CEACAM5; also called hCD47
# T2 sequence (Q08722 19-323): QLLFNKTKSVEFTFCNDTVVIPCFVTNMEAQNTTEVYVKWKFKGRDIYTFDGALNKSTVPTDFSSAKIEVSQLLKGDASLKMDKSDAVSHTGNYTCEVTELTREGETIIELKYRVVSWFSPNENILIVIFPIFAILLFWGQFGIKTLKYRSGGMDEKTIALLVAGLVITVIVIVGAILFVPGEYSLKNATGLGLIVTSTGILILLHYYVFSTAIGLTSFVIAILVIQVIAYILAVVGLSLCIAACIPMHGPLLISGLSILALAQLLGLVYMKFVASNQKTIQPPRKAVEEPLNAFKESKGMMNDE
# Source text: The cell-based assay monitoring the interaction of soluble SIRPa with human CD47 expressed at the surface of MKN-45 cells as described below was used for the detection of the blocking activity. Concentration-response experiments with bispecific antibodies according to the invention allowed determination of inhibition curves (see FIG. 4) and of IC50 values (see Table 12).
# MKN-45 cancer cells, expressing both CD47 and CEACAM5, were stained with CFSE violet to allow the imaging system (CX5) to detect the cells. Briefly, 3'000 stained MKN-45 cells per well were seeded in a 384 optical well plate (Costar) and incubated for 50 minutes with increased concentrations of bispecific antibodies of the invention ([…] to 333 nM, in quadruplicates). Then, a fixed concentration of SIRPα-mouseFc premixed with anti-mouse IgG-Fc AF647 coupled antibody (Jackson Immunoresearch diluted 1:2000) was added at 50 ng/mL final. After an incubation of 3 hours and 30 minutes, images of the fluorescence signals emitted by the detected bound SIRPa on the plates were acquired with the imaging system (CX5, Thermo Fisher). Fluorescence signals (mean fluorescence intensity MFI) were plotted according to the dose range tested, and IC50 was calculated by the software (Prism, GraphPad).
Binder,EC50 [1],Emax (MFI) [1],EC50 [2],Emax (MFI) [2],IC50 [3]
"K2AC84 (bispecific antibody, human IgG1, kappa, lambda, Kappa-lambda body; also called CD47xCEACAM5 bispecific antibody K2AC84; AC84 (CEACAM5 arm)) heavy: not shown light 1: QSVLTQPPSVSAAPGQKVTISCSGSSSNIGIGLVSWYQQLPGTAPKLLIYNVNTRPSGIPDRFSGSKSGTSATLGITGLQTGDEADYYCGTWDFSYRVDFGGGTKLTVLGQPKAAPSVTLFPPSSEELQANKATLVCLISDFYPGAVTVAWKADSSPVKAGVETTTPSKQSNNKYAASSYLSLTPEQWKSHRSYSCQVTHEGSTVEKTVAPTECS light 2: not shown",7.3 nM,1.52e+06 MFI,8.7 nM,1.27e+06 MFI,0.04 nM
"K2AC22 (bispecific antibody, human IgG1, kappa, lambda, Kappa-lambda body, human IgG1, one arm for CEACAM5 and one for CD47; comparison antibody from WO2019234576; also called state of the art bispecific CEAxCD47 antibody K2AC22; CD47xCEACAM5 bispecific antibody K2AC22) heavy: not shown light 1: QSVLTQPPSVSAAPGQKVTISCSGSSSNIANGIVSWYQQLPGTAPKLLIYFDNLRPSGIPDRFSGSKSGTSATLGITGLQTGDEADYYCGTWDFSYGIVFGGGTKLTVLGQPKAAPSVTLFPPSSEELQANKATLVCLISDFYPGAVTVAWKADSSPVKAGVETTTPSKQSNNKYAASSYLSLTPEQWKSHRSYSCQVTHEGSTVEKTVAPTECS light 2: not shown",21.3 nM,1.16e+06 MFI,19.3 nM,670000 MFI,1.2 nM
"K2AC100 (bispecific antibody, human IgG1, kappa, lambda, Kappa-lambda body; also called CD47xCEACAM5 bispecific antibody K2AC100; AC100 (CEACAM5 arm)) heavy: not shown light 1: QSVLTQPPSVSAAPGQKVTISCSGSSSNIGYGLVSWYQQLPGTAPKLLIYNGNIRPSGIPDRFSGSKSGTSATLGITGLQTGDEADYYCGTWDFSYRVDFGGGTKLTVLGQPKAAPSVTLFPPSSEELQANKATLVCLISDFYPGAVTVAWKADSSPVKAGVETTTPSKQSNNKYAASSYLSLTPEQWKSHRSYSCQVTHEGSTVEKTVAPTECS light 2: not shown",8.7 nM,1.3e+06 MFI,8 nM,1.1e+06 MFI,0.09 nM
